T1: human β-Klotho (human, UniProt Q86Z14 1-1044)
T1 sequence (looked up): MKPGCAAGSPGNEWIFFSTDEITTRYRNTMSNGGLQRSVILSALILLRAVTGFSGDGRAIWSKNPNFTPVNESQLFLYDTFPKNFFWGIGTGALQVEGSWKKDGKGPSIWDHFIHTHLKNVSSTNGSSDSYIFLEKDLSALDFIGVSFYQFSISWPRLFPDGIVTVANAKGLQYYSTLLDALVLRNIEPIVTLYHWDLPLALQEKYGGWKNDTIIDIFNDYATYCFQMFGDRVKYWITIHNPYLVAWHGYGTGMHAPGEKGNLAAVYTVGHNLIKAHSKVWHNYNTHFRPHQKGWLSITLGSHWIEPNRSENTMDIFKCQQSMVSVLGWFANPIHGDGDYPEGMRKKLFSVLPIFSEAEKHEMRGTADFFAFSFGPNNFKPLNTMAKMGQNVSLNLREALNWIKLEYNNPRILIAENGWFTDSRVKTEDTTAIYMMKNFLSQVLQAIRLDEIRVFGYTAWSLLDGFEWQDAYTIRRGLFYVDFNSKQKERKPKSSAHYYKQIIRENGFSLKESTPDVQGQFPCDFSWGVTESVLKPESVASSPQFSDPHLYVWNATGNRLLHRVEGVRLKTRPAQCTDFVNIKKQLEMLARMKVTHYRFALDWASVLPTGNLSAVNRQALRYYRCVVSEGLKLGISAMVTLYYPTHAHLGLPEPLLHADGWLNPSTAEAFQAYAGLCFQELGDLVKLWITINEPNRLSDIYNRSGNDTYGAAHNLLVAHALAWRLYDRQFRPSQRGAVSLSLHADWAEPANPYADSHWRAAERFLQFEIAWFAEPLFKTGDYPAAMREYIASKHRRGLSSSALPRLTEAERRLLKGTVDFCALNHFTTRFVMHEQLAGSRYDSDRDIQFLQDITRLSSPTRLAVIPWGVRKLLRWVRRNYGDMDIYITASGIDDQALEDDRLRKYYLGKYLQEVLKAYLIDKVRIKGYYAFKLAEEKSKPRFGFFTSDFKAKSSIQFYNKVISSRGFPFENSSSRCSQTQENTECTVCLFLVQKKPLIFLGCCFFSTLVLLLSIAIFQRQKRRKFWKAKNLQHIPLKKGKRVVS


Target: T1, human β-Klotho
Test: cell-based or functional assay

Row | ERK phosphorylation HEK-293 cells expressing β-Klotho EC50 values | Binder
1 | 188 nM | 30 kDa PEG-FGF-21 P(156)TP mutant conjugate (ligand, GalNAc-SA-PEG-30 kDa (glycoPEG) on the introduced threonine 157) MHPIPDSSPLLQFGGQVRQRYLYTDDAQQTEAHLEIREDGTVGGAADQSPESLLQLKALKPGVIQILGVKTSRFLCQRPDGALYGSLHFDPEACSFRELLLEDGYNVYQSEAHGLPLHLPGNKSPHRDPAPRGPARFLPLPGLPPALPEPPGILAPTPPDVGSSDPLSMVGPSQGRSPSYAS
2 | 109 nM | 20 kDa PEG-FGF-21 P(156)TP mutant conjugate (ligand, GalNAc-SA-PEG-20 kDa (glycoPEG) on the introduced threonine 157) MHPIPDSSPLLQFGGQVRQRYLYTDDAQQTEAHLEIREDGTVGGAADQSPESLLQLKALKPGVIQILGVKTSRFLCQRPDGALYGSLHFDPEACSFRELLLEDGYNVYQSEAHGLPLHLPGNKSPHRDPAPRGPARFLPLPGLPPALPEPPGILAPTPPDVGSSDPLSMVGPSQGRSPSYAS

Continued, binder first:

Row | Binder | ERK phosphorylation HEK-293 cells expressing β-Klotho EC50 values
3 | 20 kDa PEG-FGF-21 P(5)TSSP mutant conjugate (ligand, GalNAc-SA-PEG-20 kDa (glycoPEG) on the introduced threonine 6) MHPIPTSSPLLQFGGQVRQRYLYTDDAQQTEAHLEIREDGTVGGAADQSPESLLQLKALKPGVIQILGVKTSRFLCQRPDGALYGSLHFDPEACSFRELLLEDGYNVYQSEAHGLPLHLPGNKSPHRDPAPRGPARFLPLPGLPPALPEPPGILAPQPPDVGSSDPLSMVGPSQGRSPSYAS | 293 nM
4 | 30 kDa PEG-FGF-21 P(172)TQGAS mutant conjugate (ligand, GalNAc-SA-PEG-30 kDa (glycoPEG) on the introduced threonine 173) MHPIPDSSPLLQFGGQVRQRYLYTDDAQQTEAHLEIREDGTVGGAADQSPESLLQLKALKPGVIQILGVKTSRFLCQRPDGALYGSLHFDPEACSFRELLLEDGYNVYQSEAHGLPLHLPGNKSPHRDPAPRGPARFLPLPGLPPALPEPPGILAPQPPDVGSSDPLSMVGPTQGASPSYAS | 177 nM
5 | 30 kDa PEG-FGF-21 P(5)TSSP mutant conjugate (ligand, GalNAc-SA-PEG-30 kDa (glycoPEG) on the introduced threonine 6) MHPIPTSSPLLQFGGQVRQRYLYTDDAQQTEAHLEIREDGTVGGAADQSPESLLQLKALKPGVIQILGVKTSRFLCQRPDGALYGSLHFDPEACSFRELLLEDGYNVYQSEAHGLPLHLPGNKSPHRDPAPRGPARFLPLPGLPPALPEPPGILAPQPPDVGSSDPLSMVGPSQGRSPSYAS | > 3000 nM
6 | 20 kDa PEG-FGF-21 P(172)TQGAS mutant conjugate (ligand, GalNAc-SA-PEG-20 kDa (glycoPEG) on the introduced threonine 173) MHPIPDSSPLLQFGGQVRQRYLYTDDAQQTEAHLEIREDGTVGGAADQSPESLLQLKALKPGVIQILGVKTSRFLCQRPDGALYGSLHFDPEACSFRELLLEDGYNVYQSEAHGLPLHLPGNKSPHRDPAPRGPARFLPLPGLPPALPEPPGILAPQPPDVGSSDPLSMVGPTQGASPSYAS | 86 nM

Reference: US20240116995A1 (89BIO, published 2024)
